Data published in patent US20180245058.

Columns and labels:
Assay in all cases: cell_activity
[1] = target: CCR5 ZFN with wild-type ZC linker (SBS #8266) (artificial) (UniProt P14870); settings: average of 2; ZFN pair
[2] = tested on: CCR5 ZFN with L6a linker (artificial); settings: average of 2; ZFN pair
[3] = tested on: CCR5 ZFN with L7a linker (artificial); settings: ZFN pair
[4] = tested on: mROSA-targeted ZFN pair, Wt/Wt linkers (artificial); settings: Neuro2A, CEL-I; repeats 23.2 and 18.7; mock 0.4
[5] = tested on: mROSA-targeted ZFN pair, Wt/L7a linkers (artificial); settings: Neuro2A, CEL-I; mock 0.4
[6] = tested on: rat IgM-targeted ZFN pair, ZC linkers (artificial); settings: rat C6 cells, CEL-I
[7] = tested on: rat IgM-targeted ZFN pair including L7a linker (artificial); settings: rat C6 cells, CEL-I

Sequence of CCR5 ZFN with L6a linker (artificial) (chain, as listed by the source): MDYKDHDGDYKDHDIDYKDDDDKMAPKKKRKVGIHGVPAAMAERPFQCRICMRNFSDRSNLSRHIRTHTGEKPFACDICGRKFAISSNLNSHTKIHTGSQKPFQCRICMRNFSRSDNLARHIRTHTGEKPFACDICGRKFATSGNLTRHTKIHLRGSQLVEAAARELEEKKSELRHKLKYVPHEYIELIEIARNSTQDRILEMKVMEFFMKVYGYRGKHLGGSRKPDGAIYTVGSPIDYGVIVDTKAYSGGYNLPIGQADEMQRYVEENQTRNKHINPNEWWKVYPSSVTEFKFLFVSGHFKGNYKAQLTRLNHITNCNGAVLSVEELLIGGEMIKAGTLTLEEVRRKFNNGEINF
Sequence of CCR5 ZFN with wild-type ZC linker (SBS #8266) (artificial) (P14870 other isoform, or with tags, fused parts or gaps): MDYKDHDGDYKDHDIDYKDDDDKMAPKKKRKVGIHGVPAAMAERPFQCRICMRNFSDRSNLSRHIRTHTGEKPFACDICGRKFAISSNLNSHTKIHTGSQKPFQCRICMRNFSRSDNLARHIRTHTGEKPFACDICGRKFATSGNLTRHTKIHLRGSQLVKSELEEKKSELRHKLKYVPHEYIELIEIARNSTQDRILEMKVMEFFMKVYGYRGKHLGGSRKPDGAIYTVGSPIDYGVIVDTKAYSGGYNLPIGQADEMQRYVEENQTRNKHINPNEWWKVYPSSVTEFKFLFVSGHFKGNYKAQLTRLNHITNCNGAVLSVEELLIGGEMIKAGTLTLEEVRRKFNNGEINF
Sequence of CCR5 ZFN with L7a linker (artificial) (chain, as listed by the source): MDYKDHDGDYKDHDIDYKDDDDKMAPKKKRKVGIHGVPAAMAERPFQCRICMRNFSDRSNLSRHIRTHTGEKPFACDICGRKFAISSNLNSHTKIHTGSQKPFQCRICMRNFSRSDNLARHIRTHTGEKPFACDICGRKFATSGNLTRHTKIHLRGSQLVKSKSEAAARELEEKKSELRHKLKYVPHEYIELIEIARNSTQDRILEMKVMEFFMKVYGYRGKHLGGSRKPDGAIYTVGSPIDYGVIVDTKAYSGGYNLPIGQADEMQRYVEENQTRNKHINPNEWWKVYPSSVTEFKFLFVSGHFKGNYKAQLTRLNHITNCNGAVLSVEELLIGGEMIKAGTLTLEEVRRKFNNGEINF

CCR5 ZFN target, 4 bp gap
activity [1]: 1.2 % NHEJ

CCR5 ZFN target, 5 bp gap
activity [2]: 39.3 % NHEJ | activity [1]: 35 % NHEJ

CCR5 ZFN target, 6 bp gap
activity ([3]; average of 2): 31.8 % NHEJ | activity [2]: 25.4 % NHEJ | activity [1]: 11.1 % NHEJ

CCR5 ZFN target, 7 bp gap
activity ([3]; average of 2): 39.6 % NHEJ | activity [2]: 5.1 % NHEJ

CCR5 ZFN target, 8 bp gap
activity ([3]; average of 2 as printed): 6.1 % NHEJ

mROSA target, 6 bp gap
activity [4]: 22.6 % NHEJ | activity [5]: 7.5 % NHEJ

rat IgM target, 6 bp gap
activity [6]: 1.93 % NHEJ | activity [7]: 2.43 % NHEJ
